Data as given in publication PMC8835725, “Cryo‐EM structure of the full‐length Lon protease from Thermus thermophilus” (Febs Letters, 2021).
Values joined by “and” are separate entries in the source; they are usually repeats but may differ in a detail not shown here. Identical values can stand only once.

Tests used:
[1] = molecular target: the molecule itself; assay: SEC + other: negative staining electron microscopy; Superose 6 Increase 10/300 GL in buffer A (50 mM Tris/HCl, 200 mM NaCl, pH 8.0); oligomer size by column calibration, verified by negative staining EM
[2] = molecular target: the molecule itself; assay: electron microscopy on grids; purified EcLon on EM grids

Protein	stoichiometry N [1]	stoichiometry N [2]
N-terminally truncated mutant EcLon^253-784 (domain or fragment, Escherichia coli, UniProt P0A9M0 253-784, looked up, Lon protease, Escherichia coli, UniProt P0A9M0, residues 253-784 (lacks the NTD and the collar); Tags and their cleavage follow from 'produced as described for full-length EcLon'; also called EcLon truncation including residues 253 to 784; source: E. coli C41(DE3), purified, produced as described for full-length EcLon; not shown: His6, N-terminal, cleaved; SUMO, N-terminal, cleaved) ALKRKIDAAKMPKEAKEKAEAELQKLKMMSPMSAEATVVRGYIDWMVQVPWNARSKVKKDLRQAQEILDTDHYGLERVKDRILEYLAVQSRVNKIKGPILCLVGPPGVGKTSLGQSIAKATGRKYVRMALGGVRDEAEIRGHRRTYIGSMPGKLIQKMAKVGVKNPLFLLDEIDKMSSDMRGDPASALLEVLDPEQNVAFSDHYLEVDYDLSDVMFVATSNSMNIPAPLLDRMEVIRLSGYTEDEKLNIAKRHLLPKQIERNALKKGELTVDDSAIIGIIRYYTREAGVRGLEREISKLCRKAVKQLLLDKSLKHIEINGDNLHDYLGVQRFDYGRADNENRVGQVTGLAWTEVGGDLLTIETACVPGKGKLTYTGSLGEVMQESIQAALTVVRARAEKLGINPDFYEKRDIHVHVPEGATPKDGPSAGIAMCTALVSCLTGNPVRADVAMTGEITLRGQVLPIGGLKEKLLAAHRGGIKTVLIPFENKRDLEEIPDNVIADLDIHPVKRIEEVLTLALQNEPSGMQVVTAK	6	–
Lon protease from Thermus thermophilus (enzyme, UniProt Q72KS4 1-795, looked up, Lon protease, Thermus thermophilus, UniProt Q72KS4, full length, untagged and unmodified after SUMO cleavage; Homo-hexamer; cryo-EM sample in buffer A with 1 mM AMP-PNP and 5 mM MgCl2; also called TtLon; Lon from T. thermophilus; source: E. coli C41(DE3), purified (Ni-NTA, SUMO tag cleaved with SENP protease, Superose 6 Increase SEC); not shown: His6, N-terminal, cleaved; SUMO, N-terminal, cleaved) MKDFLRLELPVLPLRNTVVLPHTTTGVDVGRLKSKRAVEEALSADRLLFLVTQKDPEVDDPAPEDLYAVGTLAVVKQAMRLPDGTLQVMVEARSRARLLSYVAAPYLRAVGEAIPEPPLKDPELARVLVNEVQEAFERYLQNHKTLRLDRYQQEAVKSTRDPAILADLVAHHATWTLEEKQTILETPEVEERLKRVLALLLRDLERFELDKKIAARVKEQMDQNQREYYLREQMKAIQKELGGGEDFLTEIEELRERIEKKGMPEPVKEKALKELKRLERMQPGSPEATVSRTYLDWLLEVPWTEADPEVLDISVTKRVLDEDHYGLKEVKERILEYLAVRQLTQGKEVKGHAPILCFVGPPGVGKTSLGKSIARSMNRRFHRISLGGVRDEAEIRGHRRTYIGALPGKIIQGMKQVGVVNPVFLLDEIDKLSSDWRGDPAAALLEVLDPEQNHTFTDHYLDVPYDLSKVFFITTANTLSTIPRPLLDRMEVIEIPGYTLHEKRAIARYFRWPFQVKEAGLEGRLEITDRAIERIVQEYTREAGVRNLDRELSKVARKAAKDYLEKPWEGVRVVDAEDLEAYLGVPKYRPDRAEKEPQVGAAQGLAWTPYGGTLLTIEAVAVPGTGKVNLTGNLGEVMKESAHAALTYLRAHREEWGLPEGFHKDYDLHIHVPEGATPKDGPSAGITIATALASALTGRPVRMDIAMTGEITLRGRVLPIGGVKEKLLAAHQAGIHRVILPKENAAELKEVPEEILKDLEIHFVEEVGEVLKLLLLPPPPPPAVQPDRPQPGVGA	6	–
Lon protease from Escherichia coli, full length (enzyme, UniProt P0A9M0 1-784, looked up, Lon protease, Escherichia coli, UniProt P0A9M0, full length, untagged after SUMO cleavage; Seen as a mixture of hexamers and dodecamers on EM grids; also called EcLon; EcLon^FL; source: E. coli C41(DE3), purified (Ni-NTA, SUMO tag cleaved with SENP protease, Superose 6 Increase SEC); not shown: His6, N-terminal, cleaved; SUMO, N-terminal, cleaved) MNPERSERIEIPVLPLRDVVVYPHMVIPLFVGREKSIRCLEAAMDHDKKIMLVAQKEASTDEPGVNDLFTVGTVASILQMLKLPDGTVKVLVEGLQRARISALSDNGEHFSAKAEYLESPTIDEREQEVLVRTAISQFEGYIKLNKKIPPEVLTSLNSIDDPARLADTIAAHMPLKLADKQSVLEMSDVNERLEYLMAMMESEIDLLQVEKRIRNRVKKQMEKSQREYYLNEQMKAIQKELGEMDDAPDENEALKRKIDAAKMPKEAKEKAEAELQKLKMMSPMSAEATVVRGYIDWMVQVPWNARSKVKKDLRQAQEILDTDHYGLERVKDRILEYLAVQSRVNKIKGPILCLVGPPGVGKTSLGQSIAKATGRKYVRMALGGVRDEAEIRGHRRTYIGSMPGKLIQKMAKVGVKNPLFLLDEIDKMSSDMRGDPASALLEVLDPEQNVAFSDHYLEVDYDLSDVMFVATSNSMNIPAPLLDRMEVIRLSGYTEDEKLNIAKRHLLPKQIERNALKKGELTVDDSAIIGIIRYYTREAGVRGLEREISKLCRKAVKQLLLDKSLKHIEINGDNLHDYLGVQRFDYGRADNENRVGQVTGLAWTEVGGDLLTIETACVPGKGKLTYTGSLGEVMQESIQAALTVVRARAEKLGINPDFYEKRDIHVHVPEGATPKDGPSAGIAMCTALVSCLTGNPVRADVAMTGEITLRGQVLPIGGLKEKLLAAHRGGIKTVLIPFENKRDLEEIPDNVIADLDIHPVKRIEEVLTLALQNEPSGMQVVTAK	–	6 and 12
